Assay results reported in patent US20250215104A1 (WALDEN BIOSCIENCES, published 2025).

Experiments:
[1] = target: T1, human soluble urokinase plasminogen activator receptor (suPAR) (human, UniProt Q03405 23-303, limits assumed); experiment: off-rate (kdis) screen of scFv clones, biosensor (Octet)
T1 construct: Target antigen of the off-rate screen; also called hsuPAR; human suPAR

[2] = target: T2, cynomolgus soluble urokinase plasminogen activator receptor (suPAR) (cynomolgus, UniProt Q9GK78 23-303, limits assumed); experiment: as above
T2 construct: Target antigen of the off-rate screen; also called cynomolgus uPAR; cynomolgus suPAR
T2 sequence (Q9GK78 23-303 limits assumed): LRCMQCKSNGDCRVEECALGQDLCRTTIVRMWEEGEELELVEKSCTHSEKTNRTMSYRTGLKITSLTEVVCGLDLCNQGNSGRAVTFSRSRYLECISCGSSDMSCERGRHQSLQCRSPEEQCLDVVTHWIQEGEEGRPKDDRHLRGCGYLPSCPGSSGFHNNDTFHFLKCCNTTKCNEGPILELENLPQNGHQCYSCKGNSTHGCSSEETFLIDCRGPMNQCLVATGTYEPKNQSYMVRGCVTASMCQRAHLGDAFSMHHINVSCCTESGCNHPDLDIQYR

[3] = target: T3, human soluble urokinase plasminogen activator receptor (hsuPAR) (human, UniProt Q03405 23-303, limits assumed); experiment: BLI (Octet) off-rate screen of scFv clones
T3 construct: Target antigen of the off-rate screen; also called human suPAR; rhuPAR-His
T3 sequence (Q03405 23-303 limits assumed): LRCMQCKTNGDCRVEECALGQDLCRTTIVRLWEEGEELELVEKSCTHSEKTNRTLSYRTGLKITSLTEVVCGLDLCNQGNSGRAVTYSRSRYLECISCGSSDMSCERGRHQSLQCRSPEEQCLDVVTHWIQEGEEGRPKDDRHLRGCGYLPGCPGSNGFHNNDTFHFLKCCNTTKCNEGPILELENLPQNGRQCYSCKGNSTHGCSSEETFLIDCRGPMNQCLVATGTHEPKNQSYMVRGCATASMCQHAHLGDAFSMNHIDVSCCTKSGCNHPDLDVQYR

[4] = target: T4, cynomolgus suPAR (cynomolgus, UniProt Q9GK78 23-303, limits assumed); experiment: BLI (Octet) off-rate screen of scFv clones
T4 construct: Target antigen of the off-rate screen; also called cynomolgus uPAR; cynoPLAUR-His
T4 sequence (Q9GK78 23-303 limits assumed): as the sequence (Q9GK78 23-303 limits assumed) above

T1 sequence (Q03405 23-303 limits assumed): as the sequence (Q03405 23-303 limits assumed) above

Binder	koff [1]	koff [2]	koff [3]	koff [4]
suPAR_DB01_D10 (scFv, V domains shown, screened as scFv) VH: QVQLVQSGAEVKKPGASVKVSCKASGYTFTGYYMHWVRQAPGQGLEWMGWIDHENGSTSYDQKFQGRVTMTRDTSTSTVYMELSSLRSEDTAVYYCARGYDVDWFVYWGQGTLVTVSS VL: DIQMTQSPSSLSASVGDRVTITCSARQSVSYMYWYQQKPGKAPKLLIYRTSNLASGVPSRFSGSGSGTDFTLTISSLQPEDFATYYCQQYHSYPPTFGGGTKVEIK	0.00147 s⁻¹	0.000148 s⁻¹	–	–
suPAR_DB03_B03 (scFv, V domains shown, screened as scFv) VH: QVQLVQSGAEVKKPGASVKVSCKASGYTFTNYYMHWVRQAPGQGLEWMGWIDPENGSTIYDQKFQGRVTMTRDTSTSTVYMELSSLRSEDTAVYYCARGYDVDWFVYWGQGTLVTVSS VL: DIQMTQSPSSLSASVGDRVTITCSARSSVSYMYWYQQKPGKAPKLLIYRTSNLASGVPSRFSGSGSGTDFTLTISSLQPEDFATYYCQQYHSYPPTFGGGTKVEIK	–	–	0.00347 s⁻¹	0.00026 s⁻¹
suPAR_DB01_E10 (scFv, V domains shown, screened as scFv) VH: QVQLVQSGAEVKKPGASVKVSCKASGYTFTGYYMHWVRQAPGQGLEWMGWIDHENGSTSYDQKFQGRVTMTRDTSTSTVYMELSSLRSEDTAVYYCARGYDVDWFVYWGQGTLVTVSS VL: DIQMTQSPSSLSASVGDRVTITCRARQSVSYMYWYQQKPGKAPKLLIYRTSNLASGVPSRFSGSGSGTDFTLTISSLQPEDFATYYCQQYHSYPPTFGGGTKVEIK	0.00162 s⁻¹	0.000104 s⁻¹	–	–
suPAR_DB01_E01 (scFv, V domains shown, screened as scFv) VH: QVQLVQSGAEVKKPGASVKVSCKASGYSFTSYYMHWVRQAPGQGLEWMGWIDPEGGSTIYDQKFQGRVTMTRDTSTSTVYMELSSLRSEDTAVYYCARGYDVDWFVYWGQGTLVTVSS VL: DIQMTQSPSSLSASVGDRVTITCSARSSVSYMYWYQQKPGKAPKLLIYRTSNLASGVPSRFSGSGSGTDFTLTISSLQPEDFATYYCQQYHSYPPTFGGGTKVEIK	0.00474 s⁻¹	0.000254 s⁻¹	–	–
suPAR_DB01_E07 (scFv, V domains shown, screened as scFv) VH: QVQLVQSGAEVKKPGASVKVSCKASGYTFTSYYMHWVRQAPGQGLEWMGWIDHENGNTIYDQKFQGRVTMTRDTSTSTVYMELSSLRSEDTAVYYCARGYDVDWFVYWGQGTLVTVSS VL: DIQMTQSPSSLSASVGDRVTITCRASSSVSYMYWYQQKPGKAPKLLIYRTSNLASGVPSRFSGSGSGTDFTLTISSLQPEDFATYYCQQYHSYPPTFGGGTKVEIK	0.00228 s⁻¹	6.72e-05 s⁻¹	–	–
suPAR_DB01_E09 (scFv, V domains shown, screened as scFv) VH: QVQLVQSGAEVKKPGASVKVSCKASGYTFTSYYMHWVRQAPGQGLEWMGWIDHENGNTIYDQKFQGRVTMTRDTSTSTVYMELSSLRSEDTAVYYCARGYDVDWFVYWGQGTLVTVSS VL: DIQMTQSPSSLSASVGDRVTITCSARSSISYMYWYQQKPGKAPKLLIYRTSNLQSGVPSRFSGSGSGTDFTLTISSLQPEDFATYYCQQYHSYPPTFGGGTKVEIK	0.00446 s⁻¹	0.000246 s⁻¹	–	–
suPAR_DB01_E06 (scFv, V domains shown, screened as scFv) VH: QVQLVQSGAEVKKPGASVKVSCKASGYTFINYYMHWVRQAPGQGLEWMGWIDPENGNTIYDQKFQGRVTMTRDTSTSTVYMELSSLRSEDTAVYYCARGYDVDWFVYWGQGTLVTVSS VL: DIQMTQSPSSLSASVGDRVTITCSARSSVSYMYWYQQKPGKAPKLLIYRTSNLASGVPSRFSGSGSGTDFTLTISSLQPEDFATYYCQQYHSYPPTFGGGTKVEIK	0.00224 s⁻¹	0.000218 s⁻¹	–	–
suPAR_DB01_D12 (scFv, V domains shown, screened as scFv) VH: QVQLVQSGAEVKKPGASVKVSCKASGYTFTSYYMHWVRQAPGQGLEWMGWIDPENGSTIYDQKFQGRVTMTRDTSTSTVYMELSSLRSEDTAVYYCARGYDVDWFVYWGQGTLVTVSS VL: DIQMTQSPSSLSASVGDRVTITCSARSSVSYMYWYQQKPGKAPKLLIYRTSNLASGVPSRFSGSGSGTDFTLTISSLQPEDFATYYCQQYHSYPPTFGGGTKVEIK	0.00382 s⁻¹	0.000232 s⁻¹	–	–
suPAR_DB01_E03 (scFv, V domains shown, screened as scFv) VH: QVQLVQSGAEVKKPGASVKVSCKASGYTFTDYYMHWVRQAPGQGLEWMGWIDHENGNTSYAQKFQGRVTMTRDTSTSTVYMELSSLRSEDTAVYYCARGYDVDWFVYWGQGTLVTVSS VL: DIQMTQSPSSLSASVGDRVTITCSARSSVSYMYWYQQKPGKAPKLLIYRTSNLASGVPSRFSGSGSGTDFTLTISSLQPEDFATYYCQQYHSYPPTFGGGTKVEIK	0.00402 s⁻¹	5.44e-05 s⁻¹	–	–
suPAR_DB01_E08 (scFv, V domains shown, screened as scFv) VH: QVQLVQSGAEVKKPGASVKVSCKASGYTFTGYYIHWVRQAPGQGLEWMGWIDHENGSTIYDQKFQGRVTMTRDTSTSTVYMELSSLRSEDTAVYYCARGYDVDWFVYWGQGTLVTVSS VL: DIQMTQSPSSLSASVGDRVTITCSARSSVSYMYWYQQKPGKAPKLLIYRTSNLASGVPSRFSGSGSGTDFTLTISSLQPEDFATYYCQQYHSYPPTFGGGTKVEIK	0.000564 s⁻¹	5.85e-07 s⁻¹	–	–
suPAR_DB01_E02 (scFv, V domains shown, screened as scFv) VH: QVQLVQSGAEVKKPGASVKVSCKASGYTFTSYYMHWVRQAPGQGLEWMGWIDPEGGSTIYDQKFQGRVTMTRDTSTSTVYMELSSLRSEDTAVYYCARGYDVDWFVYWGQGTLVTVSS VL: DIQMTQSPSSLSASVGDRVTITCSARSSVSYMYWYQQKPGKAPKLLIYRTSNLASGVPSRFSGSGSGTDFTLTISSLQPEDFATYYCQQYHSYPPTFGGGTKVEIK	0.00469 s⁻¹	0.000347 s⁻¹	–	–
suPAR_DB01_E11 (scFv, V domains shown, screened as scFv) VH: QVQLVQSGAEVKKPGASVKVSCKASGYTFTNYYMHWVRQAPGQGLEWMGWIDHENGSTIYAQKFQGRVTMTRDTSTSTVYMELSSLRSEDTAVYYCARGYDVDWFVYWGQGTLVTVSS VL: DIQMTQSPSSLSASVGDRVTITCSARSSVSYMYWYQQKPGKAPKLLIYRTSNLASGVPSRFSGSGSGTDFTLTISSLQPEDFATYYCQQYHSYPPTFGGGTKVEIK	0.000638 s⁻¹	0.000369 s⁻¹	–	–
suPAR_DB01_E04 (scFv, V domains shown, screened as scFv) VH: QVQLVQSGAEVKKPGASVKVSCKASGYTFTGYYMHWVRQAPGQGLEWMGWIDHENGNTIYDQKFQGRVTMTRDTSTSTVYMELSSLRSEDTAVYYCARGYDVDWFVYWGQGTLVTVSS VL: DIQMTQSPSSLSASVGDRVTITCSARQSVSYMYWYQQKPGKAPKLLIYRTSNLASGVPSRFSGSGSGTDFTLTISSLQPEDFATYYCQQYHSYPPTFGGGTKVEIK	0.0014 s⁻¹	0.00031 s⁻¹	–	–

Continued, values first:

koff [1]	koff [2]	koff [3]	koff [4]	Binder
–	–	0.00344 s⁻¹	0.000189 s⁻¹	suPAR_DB02_H10 (scFv, V domains shown, screened as scFv) VH: QVQLVQSGAEVKKPGASVKVSCKASGYTFTSYYMHWVRQAPGQGLEWMGWIDHSNGNTIYDQKFQGRVTMTRDTSTSTVYMELSSLRSEDTAVYYCARGYDVDWFVYWGQGTLVTVSS VL: DIQMTQSPSSLSASVGDRVTITCSARQSVSYMYWYQQKPGKAPKLLIYRTSNLASGVPSRFSGSGSGTDFTLTISSLQPEDFATYYCQQYHSYPPTFGGGTKVEIK
–	–	0.0338 s⁻¹	0.00218 s⁻¹	suPAR_DB02_H09 (scFv, V domains shown, screened as scFv) VH: QVQLVQSGAEVKKPGASVKVSCKASGYTFTSYYMHWVRQAPGQGLEWMGWIDPENGNTIYAQKFQGRVTMTRDTSTSTVYMELSSLRSEDTAVYYCARGYDVDWFVFWGQGTLVTVSS VL: DIQMTQSPSSLSASVGDRVTITCSARSSVSYMYWYQQKPGKAPKLLIYATSNLQSGVPSRFSGSGSGTDFTLTISSLQPEDFATYYCQQYHSYPPTFGGGTKVEIK
–	–	0.00305 s⁻¹	0.000393 s⁻¹	suPAR_DB02_H06 (scFv, V domains shown, screened as scFv) VH: QVQLVQSGAEVKKPGASVKVSCKASGFNIKDYYIHWVRQAPGQGLEWMGWIDPEGGNTIYAQKFQGRVTMTRDTSTSTVYMELSSLRSEDTAVYYCARGYDVDWFVYWGQGTLVTVSS VL: DIQMTQSPSSLSASVGDRVTITCRARSSVSYMYWYQQKPGKAPKLLIYRTSNLASGVPSRFSGSGSGTDFTLTISSLQPEDFATYYCQQYHSYPPTFGGGTKVEIK
–	–	0.00317 s⁻¹	0.00146 s⁻¹	suPAR_DB02_H07 (scFv, V domains shown, screened as scFv) VH: QVQLVQSGAEVKKPGASVKVSCKASGYTFTSYYVHWVRQAPGQGLEWMGWVDPSSGATDYAQKFQGRVTMTRDTSTSTVYMELSSLRSEDTAVYYCARGYDVDWFVYWGQGTLVTVSS VL: DIQMTQSPSSLSASVGDRVTITCSARSSVSYMYWYQQKPGKAPKLLIYRTSNLASGVPSRFSGSGSGTDFTLTISSLQPEDFATYYCQQYHSYPPTFGGGTKVEIK
–	–	0.00485 s⁻¹	0.000228 s⁻¹	suPAR_DB02_H08 (scFv, V domains shown, screened as scFv) VH: QVQLVQSGAEVKKPGASVKVSCKASGYTFTGYYIHWVRQAPGQGLEWMGWIDPENGSTIYDQKFQGRVTMTRDTSTSTVYMELSSLRSEDTAVYYCARGYDVDWFVYWGQGTLVTVSS VL: DIQMTQSPSSLSASVGDRVTITCSARSSVSYMYWYQQKPGKAPKLLIYRTSNLASGVPSRFSGSGSGTDFTLTISSLQPEDFATYYCQQYHSYPPTFGGGTKVEIK
0.000618 s⁻¹	0.000203 s⁻¹	–	–	suPAR_DB01_F01 (scFv, V domains shown, screened as scFv) VH: QVQLVQSGAEVKKPGASVKVSCKASGYTFTSYYVHWVRQAPGQGLEWMGWIDHENGSTIYAQKFQGRVTMTRDTSTSTVYMELSSLRSEDTAVYYCARGYDVDWFVYWGQGTLVTVSS VL: DIQMTQSPSSLSASVGDRVTITCSARSSVSYMYWYQQKPGKAPKLLIYRTSNLASGVPSRFSGSGSGTDFTLTISSLQPEDFATYYCQQYHSYPPTFGGGTKVEIK
0.0117 s⁻¹	0.0212 s⁻¹	–	–	suPAR_DB01_E12 (scFv, V domains shown, screened as scFv) VH: QVQLVQSGAEVKKPGASVKVSCKASGGTFSSYAISWVRQAPGQGLEWLGVINPGGGGTNYAQKFQGRVTMTRDTSTSTVYMELSSLRSEDTAVYYCARGYDVDWFVTWGQGTLVTVSS VL: DIQMTQSPSSLSASVGDRVTITCQASQDISNYINWYQQKPGKAPKLLIYDASNLASGVPSRFSGSGSGTDFTLTISSLQPEDFATYYCQQYHSYPPTFGGGTKVEIK
